Here are results for 6 molecules from PMC8115485 (Nature Communications, 2021).

For assay [1], the target named is T1, HisH (Thermotoga maritima, UniProt Q9X0C8, C84S).
T1 sequence (Q9X0C8 1-201 C84S): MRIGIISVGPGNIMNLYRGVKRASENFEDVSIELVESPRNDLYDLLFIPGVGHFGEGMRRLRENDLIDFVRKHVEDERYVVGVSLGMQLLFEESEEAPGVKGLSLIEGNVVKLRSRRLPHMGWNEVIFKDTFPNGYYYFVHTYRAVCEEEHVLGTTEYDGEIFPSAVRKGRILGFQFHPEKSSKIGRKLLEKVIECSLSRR
T1 sequence (Q9X0C6 1-253 partner): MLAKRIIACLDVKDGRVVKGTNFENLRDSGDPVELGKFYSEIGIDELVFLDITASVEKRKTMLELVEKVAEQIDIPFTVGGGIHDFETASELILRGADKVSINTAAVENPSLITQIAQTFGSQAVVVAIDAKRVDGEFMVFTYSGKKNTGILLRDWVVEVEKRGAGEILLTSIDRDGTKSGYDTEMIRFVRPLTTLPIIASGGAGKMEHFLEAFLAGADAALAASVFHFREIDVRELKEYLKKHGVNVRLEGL
The experiment in a line: NMR titration in the presence of ProFAR. It is filed as binding. Also on record: HisFH-hC84S complex; with HisF.

Assay [2] concerns the target T2, HisH (Thermotoga maritima, UniProt Q9X0C8, C84A).
T2 construct: HisFH-hC84A complex; with HisF
T2 sequence (Q9X0C8 1-201 C84A): T1 sequence (Q9X0C8 1-201 C84S) with S84A
T2 sequence (Q9X0C6 1-253 partner): T1 sequence (Q9X0C6 1-253 partner)
The assay can be described thus: X-ray crystal structure at […] Å. It counts as binding.

Assay [3] deals with T1, HisH. The assay can be described thus: biochemical.
In assay [4] the target is T3, HisH (Thermotoga maritima, UniProt Q9X0C8).
T3 sequence (Q9X0C8 1-201): T1 sequence (Q9X0C8 1-201 C84S) with S84C
T3 sequence (Q9X0C6 1-253 partner): T1 sequence (Q9X0C6 1-253 partner)
The experiment in a line: NMR titration (methyl TROSY). It counts as binding. On the set-up: WT HisFH complex; with HisF.

For a further assay, the target named is T4, HisF (Thermotoga maritima, UniProt Q9X0C6).
T4 construct: HisF-wt without tag, in the HisFH-hC84A complex; with HisH (hC84A)
T4 sequence (Q9X0C6 1-253): T1 sequence (Q9X0C6 1-253 partner)
T4 sequence (Q9X0C8 1-201 C84A partner): T1 sequence (Q9X0C8 1-201 C84S) with S84A
The experiment in a line: X-ray crystal structure at […] Å; NMR titration; glutaminase activation. It is filed as binding.

For assay [5], the target named is T5, HisF, cyclase subunit of imidazole glycerol phosphate synthase from Thermotoga maritima, wild type, without … (Thermotoga maritima, UniProt Q9X0C6 1-253).
T5 construct: HisF of Thermotoga maritima, Uniprot ID Q9X0C6; Crystallised as the HisFH-hC84A complex; also called HisF-wt; source: E. coli, expressed separately; cell lysate combined with that of HisH before the NiNTA column, complex purified (NiNTA, SEC)
T5 sequence: T1 sequence (Q9X0C6 1-253 partner)
The experiment in a line: crystal structure; HisFH-hC84A complex at 30 mg/ml in 10 mM Tris-HCl pH 8.0, 100 mM NaCl; hanging drop, 18 °C, 10 mM L-glutamine, 10 mM ProFAR added by soaking; 2.06 Å; three HisFH complexes in the asymmetric unit. Particulars: both partners purified.

Assay [6] deals with T6, HisF, cyclase subunit of imidazole glycerol phosphate synthase from Thermotoga maritima, wild type (NMR … (Thermotoga maritima, UniProt Q9X0C6 1-253)).
T6 construct: HisF of Thermotoga maritima, Uniprot ID Q9X0C6; Deuterated and 15N labelled where HisF is observed; also called WT HisF; HisF-wt; source: E. coli BL21-CodonPlus (DE3)-RIL or BL21 Gold (DE3), purified (heat shock, NiNTA, TEV digestion, SEC); not shown: His-tag, N-terminal, cleaved
T6 sequence: T1 sequence (Q9X0C6 1-253 partner)
The assay can be described thus: NMR spectra (TROSY, methyl-TROSY) of the complex reconstituted by SEC; HisF and HisH combined at a 1.3/1 ratio after TEV digestion, free HisF removed on Superdex 75 in NMR buffer (50 mM NaCl, 20 mM HEPES pH 7.3, 1 mM DTT); spectra at 30 °C, 50-150 µM protein. Particulars: both partners purified. For orientation: In gel filtration, larger molecules generally elute earlier.

Assay [7] has as its target T7, HisF from Thermotoga maritima, K19A mutant (Thermotoga maritima, UniProt Q9X0C6 1-253, fK19A).
T7 construct: HisF of Thermotoga maritima, Uniprot ID Q9X0C6; also called fK19A; source: E. coli, purified
T7 sequence (looked up): T1 sequence (Q9X0C6 1-253 partner) with K19A
The description is as above. Particulars: both partners purified.

In assay [8] the target is T8, HisF from Thermotoga maritima, V48A mutant (Thermotoga maritima, UniProt Q9X0C6 1-253, fV48A).
T8 construct: HisF of Thermotoga maritima, Uniprot ID Q9X0C6; also called fV48A; source: E. coli, purified
T8 sequence (looked up): T1 sequence (Q9X0C6 1-253 partner) with V48A
Described as above. Particulars: both partners purified.

Assay [9] addresses T9, HisF from Thermotoga maritima, F23A mutant (Thermotoga maritima, UniProt Q9X0C6 1-253, fF23A).
T9 construct: HisF of Thermotoga maritima, Uniprot ID Q9X0C6; also called fF23A; source: E. coli, purified
T9 sequence (looked up): T1 sequence (Q9X0C6 1-253 partner) with F23A
The description is as above. Particulars: both partners purified.

In assay [10] the target is T10, HisF from Thermotoga maritima, D98E mutant (Thermotoga maritima, UniProt Q9X0C6 1-253, fD98E).
T10 construct: HisF of Thermotoga maritima, Uniprot ID Q9X0C6; also called fD98E; HisF-D98E; source: E. coli, purified
T10 sequence (looked up): T1 sequence (Q9X0C6 1-253 partner) with D98E
The assay is described as above. Particulars: both partners purified.

Numbering of substitutions follows the chain as printed. Names may count otherwise.

On to `NC(=O)NC[C@H](N)C(=O)O` [Albizziin], for which, at HisH [1], the “NMR titration in the presence of ProFAR” value is “for the HisFH–hC84S mutant the active conformation is clearly visible”.
For orientation: Kd means a measure of binding affinity in units of concentration. Read a low Kd as higher affinity. For the molecule `NC(=O)CC[C@H](N)C(=O)O` [Gln], the “X-ray crystal structure at 2.06 Å” value at HisH [2] is reported as “The asymmetric unit contains three HisFH complexes”. Moreover, the Kd at HisH [3] amounted to 1700 ± 100 µM; at HisH [4], 1300 ± 100 µM.
With `NC(=O)c1ncn([C@@H]2O[C@H](COP(=O)(O)O)[C@@H](O)[C@H]2O)c1N=CN[C@@H]1O[C@H](COP(=O)(O)O)[C@@H](O)[C@H]1O` [ProFAR], the “X-ray crystal structure at 2.06 Å; NMR titration; glutaminase activation” value on HisF is listed as “the HisF active site shows unambiguous electron density for a ProFAR molecule”.

B1: HisH, glutaminase subunit of imidazole glycerol phosphate synthase from Thermotoga maritima, C84A mutant (crystallisation construct) (enzyme)
chain: T1 sequence (Q9X0C8 1-201 C84S) with S84A
notes: HisH of Thermotoga maritima, Uniprot ID Q9X0C8; also called hC84A; HisH-C84A; source: E. coli, expressed separately; cell lysate combined with that of HisF before the NiNTA column, complex purified (NiNTA, SEC)
Take B1: the binding result in assay [5] is listed as “binds”.

B2: HisH, glutaminase subunit of imidazole glycerol phosphate synthase from Thermotoga maritima, C84S mutant (enzyme, UniProt Q9X0C8 1-201, looked up)
chain: T1 sequence (Q9X0C8 1-201 C84S)
notes: HisH of Thermotoga maritima, Uniprot ID Q9X0C8; Deuterated, ILMVA methyl labelled or histidine ring-13C2 labelled for NMR; also called hC84S; HisH-C84S; source: E. coli BL21-CodonPlus (DE3)-RIL, purified (heat shock, NiNTA, TEV digestion, SEC); not shown: His-tag, N-terminal, cleaved
With B2, the binding result in assay [6], in assay [7], in assay [8], in assay [9] and in [10] was “binds” throughout.

B3: HisH from Thermotoga maritima, C84A mutant (NMR samples) (enzyme, UniProt Q9X0C8 1-201, looked up)
chain: T1 sequence (Q9X0C8 1-201 C84S) with S84A
notes: HisH of Thermotoga maritima, Uniprot ID Q9X0C8; probably the same construct as m2, kept apart because the state of the tag is told only for the labelled proteins; also called hC84A; source: E. coli BL21-CodonPlus (DE3)-RIL, purified (heat shock, NiNTA, TEV digestion, SEC); not shown: His-tag, N-terminal, cleaved
In the case of B3, in [6], the binding result was “binds”.
